Test results as given in patent US12492252 (SHANDONG BOAN BIOTECHNOLOGY, dated 2025).
Where a chain is given by its changes, count along the chain named.

B1: anti-human GPC3 IgG1 antibody clone 74 (antibody, V domains shown)
VH: QCQSVEESGGRLVTPGTPLTLTYTVSGFSLNNYDMSWVRQAPGKGLQYIGWINSGGTAYYASWAKGRFTISKTSSTTVDLKMTSPTTEDTATYFCARHRYGYYGDIWGPGTLVTVSL
VL: DPVLTQTPSSVSAAVGGTVTINCQSSQNVYNNNRLAWYQQKLGQPPKLLIYFASKLASGVPSRFSGSGSGTQFTLTISGVQCDDAATYYCAGGYNTIVDNGFGGGTEVVVKR
B2: anti-human GPC3 IgG1 antibody clone 17 (antibody, V domains shown)
VH: CQSVEESGGRLVTPGTPLTLTCTVSGFSLSTYDMSWVRQAPGKGLEYIGWINSGGSPYYARWAKGRFTISKTSSTTVDLKMTSPTTEDTATYFCARHRSGYYGDIWGPGTLVTVSL
VL: DPVLTQTPSSVSAAVGDTVSINCQSSQNVYKNRLAWYQQKPGQPPKLLIYGASTLASGVPSRFKGSGSGTQFTLTISDLECDDAATYYCAGGYSTIVDNTFGGGTEVVVKR
B3: anti-human GPC3 IgG1 antibody clone 122 (antibody)
heavy: not shown
light: DPVLTQTPSSVSAAVGGTVTINCQSSQNVYNNNRLAWYQQKPGQPPKLLIYFASKLASGVPSRFKGNGSGTQFTLTISGVQCDDAATYYCAGGYNSIVDNGFGGGTEVVVERTVAAPSVFIFPPSDEQLKSGTASVVCLLNNFYPREAKVQWKVDNALQSGNSQESVTEQDSKDSTYSLSSTLTLSKADYEKHKVYACEVTHQGLSSPVTKSFNRGECTS
B4: anti-human GPC3 IgG1 antibody clone 182 (antibody)
heavy: not shown
light: B3 light with G104A, E111K
B5: anti-human GPC3 IgG1 antibody clone 49 (antibody, V domains shown)
VH: CQSVEESGGRLVTPGTPLTLTCTVSGFSLSTYWMTWVRQAPGKGLEWIGIINPSGSAYYASWAKGRFTISKTSSATVDLKMTSLTAADTATYFCAGGGGMDPWGPGTLVTVSS
VL: DPVLTQTPSSVSAAVGGTVSISCQSSQSIVKNYLSWFQQKPGQPPKRLIYKASTLPSGVPSRFKGSGSGTEFTLTISDLECDDAATYYCAASYSDNIYVFGGGTEVVVKR
B6: anti-human GPC3 IgG1 antibody clone 41 (antibody, V domains shown)
VH: B5 VH with P17A, S54G, T72A
VL: B5 VL with V30I, Q39H, K51R, K64E, S77N
B7: anti-human GPC3 IgG1 antibody clone 121 (antibody, V domains shown)
VH: B5 VH with S54A, A87V
VL: B5 VL with S20T, S28N, V30I, N32D, A52T, D95G
B8: anti-human GPC3 IgG1 antibody clone 22 (antibody, V domains shown)
VH: B5 VH with S54T, S56R
VL: B5 VL with S20T, S22N, I29V, V30Y, K31S, Q39K, P56V, K64V, D95G
B9: anti-human GPC3 IgG1 antibody clone 8 (antibody, V domains shown)
VH: B5 VH with P17A, S54G
VL: B5 VL with V30I, Q39H, K51R, K64E
B10: anti-human GPC3 IgG1 antibody clone 40 (antibody, V domains shown)
VH: B5 VH with N52S, S54A, A86T
VL: B5 VL
notes: also called parental clone 40; chimeric anti-GPC3 clone 40
B11: anti-human GPC3 IgG1 antibody clone 12 (antibody, V domains shown)
VH: B5 VH with Y58F
VL: B5 VL
B12: anti-human GPC3 IgG1 antibody clone 2 (antibody, V domains shown)
VH: CQSVEESGGRLVTPGTPLTLTCTVSGFSLSTYNMGWIRQAPGEGLEYIGTISSSTGNTYYATWAKGRFTISKTSSTTVDLKITNLTTEDTATYFCVRVNNMGDIWGPGTLVTVSL
VL: AIVMTQTPSSKSVAVGDTVTINCQASESVYKDNRLAWFQQKPGQAPKLLIYLASTLASGVPSRFKGSGSGTEFTLTISDVVCDDAATYYCGGYKDSLFDGFPFGGGTEVVVKR
B13: anti-human GPC3 IgG1 antibody clone 5 (antibody, V domains shown)
VH: B12 VH with I37V
VL: B12 VL with A45P

Legend:
[1] = target: T1, human GPC3 on cells (HepG2 cells expressing full length human GPC3; GPC3-transfected HEK293T cells) (human, UniProt P51654 25-554); test: flow cytometry on HepG2 cells
T1 construct: whole, on cells; also called GPC3-expressing HepG2 tumor cells

[2] = target: T2, full length human GPC3 His (human, UniProt P51654 25-559, limits assumed); test: SPR (Biacore T200), full length human GPC3 His immobilised, IgG1 in solution
T2 construct: also called full length human GPC3 protein; not shown: His tag

human GPC3 protein = target: T3, human GPC3 protein (human, UniProt P51654 25-559); test: screening of recombinantly expressed rabbit clones (before the change to human constant regions)
T3 construct: also called GPC3 antigen; human GPC3 proteins

[3] = target: T4, C-terminal fragment of the full length human GPC3 protein (human, UniProt P51654 359-554); test: ELISA
T4 construct: domain: C-terminal subunit (C-terminal fragment); also called C-terminal of GPC3; 30-kDa C-terminal subunit
T4 sequence (looked up): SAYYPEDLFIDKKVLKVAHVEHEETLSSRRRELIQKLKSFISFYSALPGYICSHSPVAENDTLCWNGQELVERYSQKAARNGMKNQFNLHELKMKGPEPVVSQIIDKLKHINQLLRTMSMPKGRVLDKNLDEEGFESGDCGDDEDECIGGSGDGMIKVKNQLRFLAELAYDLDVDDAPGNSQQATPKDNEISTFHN

| Binder | EC50 [1] [nM] | HepG2 Cell binding (Fold ratio) [1] [fold] | Kd [2] [nM] | RuMax [2] | koff [2] [s⁻¹] | binding result (human GPC3 protein) | binding result [3] |
| --- | --- | --- | --- | --- | --- | --- | --- |
| B1 | 0.0042 | 143 | 0.02 | 24.3 | 0.00034 | – | – |
| B2 | 0.043 | 39.9 | 0.2 | 10.7 | 0.0037 | – | – |
| B3 | 0.0053 | 129 | 0.2 | 17.3 | 0.0018 | – | – |
| B4 | – | – | 0.02 | 24.3 | 0.0019 | – | – |
| B5 | 0.012 | 115 | 0.9 | 1.7 | 0.0017 | – | – |
| B6 | 0.014 | 116 | 1.3 | 1.49 | 0.0032 | – | – |
| B7 | 0.0061 | 74.6 | 0.5 | 2 | 0.0015 | – | – |
| B8 | 0.013 | 121 | 1.6 | 2.9 | 0.00052 | – | – |
| B9 | 0.012 | 79.5 | 0.1 | 3.7 | 0.00042 | – | – |
| B10 | 0.013 | 104 | 0.6 | 2.4 | 0.0018 | – | – |
| B11 | 0.014 | 125 | 0.6 | 1.4 | 0.0016 | – | – |
| B12 | 0.0076 | 694 | ~0.49 | 2 | 0.00039 | – | – |
| B13 | – | – | – | – | – | binds | binds |
